# Assay: label from the status in PepcDB records
sequence,measurement,value
MKISAVVVTFNRKKLLLECLNALRNQTYPLDAIFIIDGPSTDGTPEALLECGYIKELPPKKGNWSWETKNVIYSPINNKPIKVYYVRLYKDVGGSGGFYEGVKRAYEEGYNWIWLMDDDAEPREDALEKLIRYMNLPGVIALAPTVIRPTGEISKPHRGILCFKKIFPMIQIPLDESKYKSNQPVQIDFVSFVGPLIKRDAIKIVGFPKKEFFIHHDDVEYSIRLRTVGKIYLIPDSVIIHKENIKKTSLIKKRFLGKTIYRIPYNKLWKTYYGTRNLTYLGRIYSKSKFKFYFKLLKRWAVSVGAIILFDDHKIKRIQFITSAYLDGLRGKFDNEKPKRILYGGKKELEHHHHHH,protein production,not failed

# Source: a protein production outcome set (Wang et al. 2014)
